Measured values: paper PMC11568366, “Phosphorylation of cytochrome c at tyrosine 48 finely regulates its binding to the histone chaperone SET/TAF‐Iβ in the nucleus” (Protein Science : A Publication of the Protein Society, 2024)

B1: wild-type cytochrome c (reduced) (natural protein)
chain: not shown
notes: cytochrome c, human; Hemeprotein, kept reduced with sodium ascorbate in ITC and NMR; Construct and expression as in cited earlier work (Moreno-Beltrán et al. 2015; Olteanu et al. 2003); also called WT Cc; Cc
B2: Y48D cytochrome c phosphomimetic mutant (reduced) (natural protein)
chain: not shown
notes: cytochrome c, human; Hemeprotein, reduced in ITC; also called Y48D Cc
B3: Y48E cytochrome c phosphomimetic mutant (reduced) (natural protein)
chain: not shown
notes: cytochrome c, human; Hemeprotein, reduced in ITC; also called Y48E Cc

Legend:
[1] = target: T1, SET/template-activating factor Iβ (SET/TAF-Iβ), recombinant (UniProt Q01105-2 1-277); experiment: ITC; 300 μM reduced Cc injected (17 x 2.91 μL) into 30 μM SET/TAF-Iβ (as homodimer) in the cell, 25°C, 10 mM sodium phosphate pH 7.4; WT fitted with two cooperative binding sites, mutants with independent binding sites; conditions: both partners purified
T1 construct: SET/TAF-Iβ, the beta isoform of SET; construct in pET28a(+) from González-Arzola et al. 2015; Concentration is expressed as the functional homodimer

[2] = target: T1, SET/template-activating factor Iβ …; experiment: as above; conditions: both partners purified; remark: listed apart in the source

T1 sequence (Q01105 other isoform, or with tags, fused parts or gaps): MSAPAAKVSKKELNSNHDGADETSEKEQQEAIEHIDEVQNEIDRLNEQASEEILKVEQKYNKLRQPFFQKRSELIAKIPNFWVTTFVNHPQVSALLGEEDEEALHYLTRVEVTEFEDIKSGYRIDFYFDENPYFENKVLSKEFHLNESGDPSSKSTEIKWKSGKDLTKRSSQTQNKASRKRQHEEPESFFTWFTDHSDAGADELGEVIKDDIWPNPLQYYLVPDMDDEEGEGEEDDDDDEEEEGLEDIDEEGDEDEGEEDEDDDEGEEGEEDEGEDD

Binder	stoichiometry N [1]	dH1 (first site) [2] [kcal/mol]	dH2 (second site) [2] [kcal/mol]	Kd [2] [µM]	dH [2] [kcal/mol]	stoichiometry N [2]
B1	2 Cc per SET/TAF-Iβ homodimer	1.3	6.9			
B2				22	-7.5	2.2
B3				110	-19	2.3
